A short description of the data set: yeast display, Sf9 membrane polyspecificity reagent, FACS + sequencing; frameworks hold sequencing errors. Put shortly: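 A synthetic nanobody library was expressed on Saccharomyces cerevisiae BJ5465 by galactose induction for 36–48 hours. The library was stained for 1 hour at 4 °C with 10% biotinylated, detergent-solubilized Sf9 membrane reagent and enriched with streptavidin microbeads before FACS. Low and high (top ~1%) gates were set on anti-HA fluorescence for expression and streptavidin fluorescence for reagent binding, and each polyreactivity label reflects the gate of origin.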
“QVQLVESGGGLVQAGGSLRLSCAASGSTFARYAMGWYRQAHGKERELVAAISRRGGSTYYADSVKGRFTISRDNAKNTVYVQMNSLKPEDTAVHYCAARYGIISSFEYDYWGQGTQVTVSS”: the “polyreactivity (PSR sort gate)” value is reported as “high polyreactivity”.

With “QVQLVESGGGLVQAGGSLRLSCAASGSTFARYAMGWYRQAPGKERELFAVITWTGGSTYYADSVKGRFTISRDNAKNTVYLQMNSLKPEDTAVYYCAADFRYYVTALKYDYWGQGTQVTVSS”, the “polyreactivity (PSR sort gate)” value is “low polyreactivity”.

Take “QVQLVESGGGLVQAGGSLRLSCAASGSTFARYAMGWYRQAPRKERELVAAISRSGGSTNYADSVKGRFTISRDNAKNTVYLQMNSLKPEDTAVYYCAVRSGYYDKYVRGYDYWGQGTQVTVSS”: the “polyreactivity (PSR sort gate)” value is given as “high polyreactivity”.

As to “QVQLVESGGGLVQAGGSLRLSCAASGSTFARYTMGWYRQAPGKERELVAAITSNGVSTYYADSVKGRFTISRDNAKNTVYLQMNSLKPEDTAVYYCAAEYRPRYKRIWVVTKDYWGQGTQVTVSS”, the “polyreactivity (PSR sort gate)” value is reported as “low polyreactivity”.

“QVQLVESGGGLVQAGGSLRLSCAASGSTFASHVMGWYRQAPGKERELVAAITRGDRTHYADSVKGRFTISRDNAKNTVYLQMNSLKPEDTAVYYCAKVTTLGRSRDYWGQGTQVTVSS”: the “polyreactivity (PSR sort gate)” value is “low polyreactivity”.

Consider “QVQLVESGGGLVQAGGSLRLSCAASGSTFASNAMGWDRQAPGKERELVAVITWRGDRTYYADSVKGRFTISRDNAKNTVYLQMNSLKPEDTAVYYCAADAYRRYGVGWEDYWGQGTQVTVSS”, for which the “polyreactivity (PSR sort gate)” value is on record as “high polyreactivity”.

Regarding “QVQLVESGGGLVQAGGSLRLSCAASGSTFATNAMGWDRQAPGKERELVASISSGGSTTYADSVKGRFTISRDNAKNTVYLQMNSLKPEDTAVYYCNKRYLWRNSRGFDYWGQGTQVTVSS”, the “polyreactivity (PSR sort gate)” value is reported as “low polyreactivity”.

In the case of “QVQLVESGGGLVQAGGSLRLSCAASGSTFATYAMGWYRQAPGKERELVAAITSGGSTYYADSVKGRFTISRDNAKNTFYFQMNSLKPEDTAVYYCAARSAGWRRATYYKREEYWGQGTQVTVSS”, the “polyreactivity (PSR sort gate)” value is listed as “high polyreactivity”.

With “QVQLVESGGGLVQAGGSLRLSCAASGSTFATYTMGWYRQAPGTERELVAAITGSVGSTYYADSVMGRFTISRDNAKNTVYVQMNSRKPQDTAVFYCAARGYRTRRGFTYQYRYEYWGQGTQVTVSS”, the “polyreactivity (PSR sort gate)” value is “high polyreactivity”.

Turning to “QVQLVESGGGLVQAGGSLRLSCAASGSTFAVNAMGWYRQAPGKERELVAAITSGGNTYADSVKGRFTISRDNAKNTVYLQMNSLKPEDTAVYYCAAALTEVVYWIYDYWGQGTQVTVSS”, the “polyreactivity (PSR sort gate)” value was “low polyreactivity”.

Regarding “QVQLVESGGGLVQAGGSLRLSCAASGSTFAVYAMGWYRPAPGKERELVAGISSRGGRTYYADSVKGRFTISRDNAKNTVYLQMNSLKPEDTAVYYCAARFKGNPDRYGYWGQGTQVTVSS”, the “polyreactivity (PSR sort gate)” value is reported as “high polyreactivity”.

Turning to “QVQLVESGGGLVQAGGSLRLSCAASGSTFAVYGMGWYRQAPGKERELVAAISSSGARTYYADSVKGRFTISRDNAKNTVYLQMNSLKPEDTAVYYCAALPHRQAGYDYWGLGTQVTVSS”, the “polyreactivity (PSR sort gate)” value was “high polyreactivity”.

“QVQLVESGGGLVQAGGSLRLSCAASGSTFAWNAMGWYRQAPGKERELVAAISKSGGSTYYADSVKGRFTISRDHAKNTVYLQMNSLTPEDTAVYYCAARGTVYRRYGGSRYDYWGQGTQVTVSS”: the “polyreactivity (PSR sort gate)” value is on record as “high polyreactivity”.

With “QVQLVESGGGLVQAGGSLRLSCAASGSTFAWNVMGWYRQAPGKERELVAAISGRGGSTYYADSVKGRFTISRDNAKNTVYLQMNSLKPEDTAVYYCNKVYGRSRDVYDYDYWGQGTQVTVSS”, the “polyreactivity (PSR sort gate)” value is given as “high polyreactivity”.

As to “QVQLVESGGGLVQAGGSLRLSCAASGSTFAWYAMGWYRQAPGKERELVATISSSGVSTFYADSVKGRFTISRDNAKNTVYLQMNSLKPEDTAVYYCNRYGNSYYFAPGPLYNYWGQGTQVTVSS”, the “polyreactivity (PSR sort gate)” value is given as “high polyreactivity”.

For “QVQLVESGGGLVQAGGSLRLSCAASGSTFAYNALGWYRQAPGKERELVAAIDINDGNTYYADSVKGRFTISRDTAKNTVNLQINSLKPEDTAVYYCAAEYFYPYYGAMDYWGQGTQVTVSS”, the “polyreactivity (PSR sort gate)” value is “low polyreactivity”.

“QVQLVESGGGLVQAGGSLRLSCAASGSTFAYNAMGWYRQAPGKERELVAAIDINDGNTYYADSVKGRFTISRDNAKNTVYLQMNSLNPEDTAVYYCAAEGPYYLGLDGVKDDYWGQGTQVTVSS”: the “polyreactivity (PSR sort gate)” value was “low polyreactivity”.

As to “QVQLVESGGGLVQAGGSLRLSCAASGSTFAYNAMGWYRQAPGKERELVAAISWGDGITYYADSVKGRFTISRDNAKNTVYLQMNSLKPEDTEVITRDFGYWGQGTQVTVSS”, the “polyreactivity (PSR sort gate)” value was “low polyreactivity”.

On to “QVQLVESGGGLVQAGGSLRLSCAASGSTFAYNAMGWYRQAPGKERELVARISSSGDITYYADSVKGRFTISRDNAKNTVYLQMNSLKPEDTAVYYCAKRYLTRYKGYYYWGQGTQVTVSS”, for which the “polyreactivity (PSR sort gate)” value is recorded as “high polyreactivity”.

In the case of “QVQLVESGGGLVQAGGSLRLSCAASGSTFAYNAMGWYRQAPGKERELVASITVSVGSTYYADSVKGRFTISRDNAKNTVYLQMNSLKPEDTAVYYCAARVTRRSSTYWVPRTGYYYWGQGTQVTVSS”, the “polyreactivity (PSR sort gate)” value is on record as “low polyreactivity”.

As for “QVQLVESGGGLVQAGGSLRLSCAASGSTFAYNDMGWYRQAPWKERDLVADIRSGGNTNYADSVKGRFTISRDNAKNTVYLQMNILKPEDTAVYYCASDGYRIDVYHPDYRYDYWGQGTQVTVSS”, the “polyreactivity (PSR sort gate)” value is “low polyreactivity”.

As for “QVQLVESGGGLVQAGGSLRLSCAASGSTFAYYAMGWYRHAPGKERELVAAISSGGSTYYADSVKGRFTISRDNAKNTVYLQMNSLKPEDTEVYYCNKLWVGKFKRYEFGYWGQGSQVTVSS”, the “polyreactivity (PSR sort gate)” value is “low polyreactivity”.

For “QVQLVESGGGLVQAGGSLRLSCAASGSTFAYYAMGWYRQAPGKERELVAAISRTGGSTYYADSVKGRFTISRDNAKNTVYLQMNSLKPEDNAVYYCNARGPVGTFDYDYWGQGTQVTVSS”, the “polyreactivity (PSR sort gate)” value is “low polyreactivity”.

As to “QVQLVESGGGLVQAGGSLRLSCAASGSTFAYYAMGWYRQAPGKERELVAAITWSGGRTYYADSVKGRFTISRDNAKNTVYLQMNSLKPEDTAVYYCAAGQQHSLFRVPQYRNRAFYYWGQGTQVTVSS”, the “polyreactivity (PSR sort gate)” value is listed as “high polyreactivity”.

In the case of “QVQLVESGGGLVQAGGSLRLSCAASGSTFAYYAMGWYRQAPGKERELVARITASGGRTYYADSVKGRFTISRDNAKNTVYLQMNSLKPEDTAVYYCAKGRYVEVSYGAHYDYWGQGTQVTVSS”, the “polyreactivity (PSR sort gate)” value is “low polyreactivity”.

In the case of “QVQLVESGGGLVQAGGSLRLSCAASGSTFAYYAMGWYRQAPGKERELVAVISVRGGSTYYADSVKGRFTISRDNAKNTVYLQMNSLKPEDTAVYYCAADTFAGYYYWGQGTQVTVSS”, the “polyreactivity (PSR sort gate)” value is “high polyreactivity”.

For the sequence “QVQLVESGGGLVQAGGSLRLSCAASGSTFAYYTMGWYREAPGKERELVAAISKSGGSTTYADSVKGRFTISRDNAKNTVYLQMNSLKPEDTAVYYCAAYDRVENYNYWGQGTQVTVSS”, the “polyreactivity (PSR sort gate)” value is “high polyreactivity”.

Consider “QVQLVESGGGLVQAGGSLRLSCAASGSTFAYYTMGWYRPGPGKEREMVAAIRGGGRTYYADSVKGRFTISRDNAKNTVYLQMNSLKPEDTAVYYCAATVYVTKGYGYWGQGTQVTVSS”, for which the “polyreactivity (PSR sort gate)” value was “high polyreactivity”.

On to “QVQLVESGGGLVQAGGSLRLSCAASGSTFAYYTMGWYRQAPGKERELVAAISRRGGSTYYADSVKGRFTISRDNAKNTVYLQMNSLKPEDTAVYYCAASFKGPGYYRYYYWGQGTQVTVSS”, for which the “polyreactivity (PSR sort gate)” value is “high polyreactivity”.

As to “QVQLVESGGGLVQAGGSLRLSCAASGSTFAYYTRGWYRQAPGKERELVAAITSGGRTSYADSVKGRFTISRDNAKNSVYLQMNSLKPEDTAVYYCAKGRKPGYYYWGQGTQVTVSS”, the “polyreactivity (PSR sort gate)” value was “high polyreactivity”.

“QVQLVESGGGLVQAGGSLRLSCAASGSTFAYYVMGWYRQAPGKERELVAAITGTGGSTYYADSVKGRFTISRDNAKNTVYLQLNSLKPEDTAVYYCAAETPIYYGYWYDSWGQGTQVTVSS”: the “polyreactivity (PSR sort gate)” value is recorded as “high polyreactivity”.

Regarding “QVQLVESGGGLVQAGGSLRLSCAASGSTFCTYAMGWYRQAPGKERELVAAITQRGASTYYADSVKGRFTISRDNAKNTVYLQMNSLKPEDTAVYYCAAYKRGRPEMDYWGQGTQVSVSS”, the “polyreactivity (PSR sort gate)” value is listed as “high polyreactivity”.

Regarding “QVQLVESGGGLVQAGGSLRLSCAASGSTFDANAMGWSRQAPRKERELVATISDGGSTNYADSVKGRFTISSDNAKNTVYLQMISVKPEDTAVYYCAAVKLFLGLGFEYWGQGTQVTVSS”, the “polyreactivity (PSR sort gate)” value is listed as “low polyreactivity”.

For the sequence “QVQLVESGGGLVQAGGSLRLSCAASGSTFDANAMGWYRQAPGKERELVAAISRSGGNTYYPDSVKGRFTISRDNAKNTVYLELNSLKPEDTAVYYCAADFRNAYYDRLDYWGQGTQVTVSS”, the “polyreactivity (PSR sort gate)” value is recorded as “low polyreactivity”.

In the case of “QVQLVESGGGLVQAGGSLRLSCAASGSTFDAYAMGWYRQAPGKERELVAAITWSGGSTYYADSVKGRFTISRDNAKNTVYLEMNSLKPEDTAVYYCAADKLGELDYWGQGTQVTVSS”, the “polyreactivity (PSR sort gate)” value was “low polyreactivity”.

Turning to “QVQLVESGGGLVQAGGSLRLSCAASGSTFDDYAMGWYRQAPGKERELVAAISRSDGSTSYADSVKGRFTISRDNAKNTVYLQMNSLKPEDTAVYYCAADPVFKDDLWPVRVRVDYWGQGTQVTVSS”, the “polyreactivity (PSR sort gate)” value was “low polyreactivity”.

Turning to “QVQLVESGGGLVQAGGSLRLSCAASGSTFDFYAMGWYRQAPGKERELVAAITSGGTTNYADSVKGRFTISRDNAKNTVYLQINSLKPEDTAVYYCNAYYLGWYRVRAVTGYYYWGQGTQVTVSS”, the “polyreactivity (PSR sort gate)” value is recorded as “low polyreactivity”.

On to “QVQLVESGGGLVQAGGSLRLSCAASGSTFDFYPMGWYRQAPGKERELVAAIRIGGNPNYADSVKGRLTISRDNAKNTVYLQLNSLKPEDTAVYYCARDDTYDTPLSPYDYWGQGTQVTVSS”, for which the “polyreactivity (PSR sort gate)” value was “low polyreactivity”.

With “QVQLVESGGGLVQAGGSLRLSCAASGSTFDGNAMGWYRPAPGKVRELVAAITRAGRTSYADSVKGRFTISRDNAKNTVYLQMNSLKPEDTAVYYCAKGGYDYWGQGTQVTVSS”, the “polyreactivity (PSR sort gate)” value is recorded as “low polyreactivity”.

As to “QVQLVESGGGLVQAGGSLRLSCAASGSTFDGNAMGWYRQAPGKERELVAAISYSGGRTYYADSVKGRFTISRDNAKNTVYLQMNSLKPEDTAVYYCATVRPKYSASSYLAYSIFRYGYWGQGTQVTVSS”, the “polyreactivity (PSR sort gate)” value is reported as “high polyreactivity”.

The record behind these values is the nanobody polyreactivity screen of Harvey et al. (2022).
